Data published in the supplement of paper PMC10724198.
± gives the standard deviation of the averaged measurements.

system: Saccharomyces cerevisiae; test: protein stability index of tFT-peptide fusion (C-terminal peptide) (PSI (0-1 scale)); higher = more stable (slower turnover); conditions: genetic background: wild type; temperature: 30 C
Method: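 Multiplexed protein stability (MPS) profiling in S. cerevisiae. Random 12-aa peptides (tFT-X12 library) are fused to the C-terminus of a sfGFP-mCherry tandem fluorescent timer, after mCherry and a GGGS linker. Cells are FACS-sorted into 8 mCherry/sfGFP bins and deep-sequenced. The protein stability index (PSI) is the read-weighted bin average, scaled from 0 (unstable) to 1 (stable). Only peptides with >10 reads are reported; cells were grown at 30 °C in SC-His with glucose.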
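Note: PSI is a weighted mean of sequencing reads over stability bins, variants kept only with over 10 reads, mCherry proximal and sfGFP distal, peptide attached via GGGS linker.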

Row | Sequence | protein stability index
1 | FFSFWVGATTIE | 0.70044 ± 0.00014
2 | FFVAFGSWFGFL | 0.677 ± 0.099
3 | FFVRGCLCLSDR | 0.693 ± 0.024
4 | FFVSHLLRFAIK | 0.555 ± 0.0089
5 | FGAIREVFYIRL | 0.662 ± 0.018
6 | FGCGVADLERCL | 0.686 ± 0.013
7 | FGDLAVFFAFLL | 0.564 ± 0.0069
8 | FGESGSGSKRCG | 0.701 ± 0.12
9 | FGFLSVSPLLSV | 0.642 ± 0.016
10 | FGGEGGEEMAGG | 0.789 ± 0.034
11 | FGGGLGGGVVLV | 0.69158 ± 0.00021
12 | FGRFCYELLCGT | 0.541 ± 0.056
13 | FGSDQFVCRLWS | 0.729 ± 0.048
14 | FGVALGLRACAG | 0.668 ± 0.059
15 | FGVVGAVGWRLR | 0.638 ± 0.03
16 | FGYSGCVAKTGL | 0.658 ± 0.049
17 | FHSSDLCGPVTS | 0.67 ± 0.025
18 | FIKSRRLCCVNL | 0.663 ± 0.032
19 | FILLLPSPPPAP | 0.618 ± 0.034
20 | FITRATRESRIG | 0.694 ± 0.0073
21 | FKKMTNVIKGNN | 0.689 ± 0.016
22 | FKLSRTDSWMFT | 0.712 ± 0.01
23 | FKPKAGCSNFAK | 0.696 ± 0.025
24 | FKSCSLHCSRCS | 0.682 ± 0.12
25 | FKWSGGGRGVGP | 0.679 ± 0.08

Row | Sequence | protein stability index
26 | FLFFLLLYVFFC | 0.498 ± 0.048
27 | FLGAVVGVGLVG | 0.658 ± 0.053
28 | FLGECSLLSGFL | 0.694 ± 0.033
29 | FLGGSRVGRGDG | 0.6943 ± 0.0053
30 | FLGLFHTVKKWQ | 0.684 ± 0.06
31 | FLGLSYYRLPVG | 0.606 ± 0.046
32 | FLIFSLSFCVLS | 0.6713 ± 0.0031
33 | FLLSLLAFRFFL | 0.478 ± 0.04
34 | FLLTVFPPLFFP | 0.704 ± 0.011
35 | FLLVHIFSLFCL | 0.547 ± 0.013
36 | FLLYGWTRPSCQ | 0.735 ± 0.062
37 | FLPRRLCVRWRG | 0.684 ± 0.065
38 | FLPWPSYPTPGP | 0.784 ± 0.018
39 | FLQSRGWVCNHL | 0.655 ± 0.038
40 | FLSALLALPASP | 0.698 ± 0.0064
41 | FLSARVSSSLLL | 0.639 ± 0.035
42 | FLSGVGSHLTGP | 0.653 ± 0.019
43 | FLSLAAPQSGGA | 0.693 ± 0.027
44 | FLSRCSVRPVTY | 0.668 ± 0.021
45 | FLSSFVSNHVFW | 0.7914 ± 0.0032
46 | FLTSPFIITRMP | 0.593 ± 0.071
47 | FLVPTYISPFSF | 0.65 ± 0.027
48 | FLWLRLLEAFWF | 0.603 ± 0.032
49 | FMLCCFPCWCVL | 0.6127 ± 0.0041
50 | FMRGQCWLRGCE | 0.672 ± 0.016

Row | Sequence | protein stability index
51 | FNGANEDCDLGV | 0.665 ± 0.12
52 | FNNTSFALRSQA | 0.741 ± 0.029
53 | FPAMVRVDTCGV | 0.673 ± 0.059
54 | FPAPSPPFRLPP | 0.748 ± 0.025
55 | FPAYRPARLTPA | 0.606 ± 0.033
56 | FPFVVVISSSGE | 0.693 ± 0.23
57 | FPGFHPIFPPPL | 0.664 ± 0.093
58 | FPHSPPFIPHPP | 0.647 ± 0.021
59 | FPLDNIALQSFP | 0.774 ± 0.099
60 | FPLPPFPLTPPP | 0.64 ± 0.054
61 | FPLQSFCYFVPI | 0.597 ± 0.0015
62 | FPPRPLPFCSPA | 0.643 ± 0.0046
63 | FPPVPLVTDTFT | 0.675 ± 0.034
64 | FPPVVSSLPPPS | 0.686 ± 0.14
65 | FPRGPLPPAPSP | 0.6556 ± 0.006
66 | FPRPHPTPLPPG | 0.689 ± 0.013
67 | FPRSCETPARAL | 0.6607 ± 0.0043
68 | FPRSMPSPPSSE | 0.623 ± 0.035
69 | FPRSSGRTVNCV | 0.648 ± 0.0084
70 | FPSASPPFLPTP | 0.705 ± 0.037
71 | FPSPPHALPTFP | 0.669 ± 0.071
72 | FPSSRGLGGTMG | 0.658 ± 0.017
73 | FPSTPRPPLPPP | 0.668 ± 0.014
74 | FQPTYCVHKQNK | 0.722 ± 0.024
75 | FRCFDAQRLGGV | 0.6858 ± 0.002

Row | Sequence | protein stability index
76 | FRDPTVLCCLHI | 0.515 ± 0.055
77 | FRMNEVSWDVVS | 0.675 ± 0.032
78 | FRRGGVERGVEG | 0.723 ± 0.026
79 | FRSFGYSGSMLA | 0.6902 ± 0.0013
80 | FRSFLSKLNGLF | 0.636 ± 0.03
81 | FRSGRLSPPAPS | 0.692 ± 0.0028
82 | FRSRGPVGMGAS | 0.686 ± 0.1
83 | FRYICYSRPVMR | 0.684 ± 0.14
84 | FSCEVSFAGLIV | 0.6 ± 0.012
85 | FSFFPLLARYFF | 0.499 ± 0.0052
86 | FSGLELRVGCGA | 0.732 ± 0.086
87 | FSGRRGCFSSYI | 0.653 ± 0.037
88 | FSLLLSFPCSYL | 0.601 ± 0.021
89 | FSLLSFLLPLFP | 0.787 ± 0.12
90 | FSNSSASPPSLS | 0.664 ± 0.068
91 | FSPDSDFTRCAP | 0.701 ± 0.002
92 | FSPPPLPAASPS | 0.664 ± 0.071
93 | FSPYLYNIRTSL | 0.612 ± 0.024
94 | FSRAFLDRVIVS | 0.713 ± 0.04
95 | FSRRQLLCLPHP | 0.677 ± 0.0083
96 | FSRSDREIFPRN | 0.585 ± 0.07
97 | FSRSGIRLLGVA | 0.59 ± 0.021
98 | FSSARSPLLSRL | 0.705 ± 0.041
